Reference: the supplement of paper PMC12764529
± gives the half width of the 95% confidence interval.

Tests used:
[1] = folding stability dG unfold (combined trypsin and chymotrypsin); higher = more stable
In short: (§1)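 Only designs with AlphaFold2 dimer inter-PAE above 15 were retained; each was a mini-protein under 80 residues with no cysteine, in a PA-tagged cDNA display construct. After digestion with trypsin and chymotrypsin and sequencing, K50 was inferred by Bayesian fitting of counts, and unfolding free energy was derived per protease or combined against a sequence-predicted unfolded-state K50 and a shared folded-state K50.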

[2] = folding stability dG unfold from trypsin proteolysis; higher = more stable
Method: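 Folding stability of de novo designed mini-proteins (<80 aa, no Cys; designed by TrROS, TrMRF, ProteinMPNN and the joint model) was measured by cDNA display proteolysis with trypsin and chymotrypsin. Each protease was used at 11 concentrations in a threefold dilution series plus a no-protease condition. K50 was inferred by Bayesian fitting of sequencing counts, and dG unfold was derived against a sequence-predicted unfolded-state K50 (Tsuboyama et al. method). Sequences shown include variable-length N-terminal GS-type padding (SAGGSAGG...) inside a display construct carrying a PA tag. Rows were kept only if the AF2 dimer inter-PAE was >15, to exclude likely homo-oligomers.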

[3] = folding stability dG unfold from chymotrypsin proteolysis; higher = more stable
In short: as §1

Sequence	folding stability dG unfold [1] [kcal/mol]	folding stability dG unfold [2] [kcal/mol]	folding stability dG unfold [3] [kcal/mol]
SAAPTSSGPISLNKPEILTITSVEADPETGTITTPTRVELTEEELDPFNPEIPTFKKKYLDVTLTTPTSSAG [r14_888_JUSTAS]	< -1	-0.643 ± 0.45	
SAGGSAGGSAGNVEEIADQLKPNGYKISTVEPTDDQVEVEIYNPESKEPRKFRIPPNQPISAGGSAGGSAGG [r11_428_TrROS]	< -1	-0.414 ± 0.24	
SAGSMKTEEKTEEVPPVTLPFGPSVRVRRVTTTITDPSTGKIKEVTVELFDPAGRRRVDPVKKVPVELLSAG [r14_631_JUSTAS]		0.794 ± 0.13	
SAGGSAGGSAGKTIPIDEEEAKALFKAGNPRTITRLLPDGKTETLTYQPETNEVSVLDPKAPSAGGSAGGSA [r18_400_JUSTAS]		-0.795 ± 0.61	
SAGGSAGGSAGGKVTVEKDKETGKYTVKIVNKKTKKEITVTVPAKDKEKALKKAKELAKSAGGSAGGSAGGS [r10_1117_TrROS_Hall]		-0.349 ± 0.35	
SAGGSAGGSAGGMVLKTETRPGFEGGRAWTVTTTVYPDSVVVTTTPPDGVPTTTTIPPSSSAGGSAGGSAGG [r7_516_JUSTAS]		-0.221 ± 0.24	
SAGVEYEVKVEYDPETGTVTAPVTFPDGPEAIVEIEFEEPGRYKMIIRIEEEEKEFEVDPDAIDEITIESAG [r5_14_TrMRF]		-0.551 ± 0.25	
SAGGSAGGSAGKRKIIFQVDNPEDMLDEIKIPPGGEVKIENIEIQPQPNGRHWAVFEIKDSAGGSAGGSAGG [r11_150_TrROS]		-0.398 ± 0.4	
SAGGSAGGSAGGKAVFLKTKTVTRTVTRKTTKNGKEEEVATETVTTVELVEVDLDNGEASAGGSAGGSAGGS [r10_93_TrROS_Hall]		-0.708 ± 0.37	
SAGGSAGGSAGGMTLTITDDDPSVGPRTFTLTEPGSSKTTTLTSAEMEALKAAGPVTVAGSAGGSAGGSAGG [r7_452_JUSTAS]	-0.209 ± 0.23		0.122 ± 0.22
SAGGSAGGNTIELPLPNGMELEIPVQKNPEGYYQVNIERYDPDDGKKKEIPFTMPAEDIKDFLKSAGGSAGG [r6_859_TrROS]	-0.785 ± 0.36		-0.205 ± 0.29
SAGGSAGGSMSTVSTSTTYFPDKKVTTTTTVTPTPDGTTATTPSVTVTPLPPPNPPPAPFNRLSAGGSAGGS [r20_30_JUSTAS]	-0.351 ± 0.36		-0.125 ± 0.28
SAGGSAGGSAMPERRAAEAAAAPPPVPKVVITSPGSEEEARRIEEELRAAPGVEEVTVTVVPRLSAGGSAGG [r6_285_JUSTAS]	0.0774 ± 0.16		0.804 ± 0.045
SADTLTVSDLMHKLMEEERKKNPEPWSPEDMQEWAKTAARKLADKEGIPIKDVEVEPTDGYPSITVKVPSAG [r14_147_TrROS]	< -1		-0.691 ± 0.73
SAGVRYLVATGEDGATVVVPVPAETEEEAEEKAEELARELAERFPGARFVPVPVEEPELPPVEALPGVESAG [r5_950_TrMRF]	-0.46 ± 0.57		0.429 ± 0.11
SAYYKIRWNNGREIELKDMPIEDLEKYFPGGPVEIEPVPPVPVVRIESWEQANDLAEQNPPNHTIIVMDSAG [r14_445_TrROS]	-0.634 ± 0.56		-0.476 ± 0.83
SALDPAAGTVTATVTRPVTLPDGRTVPVTRPVRVPVTYDVVVRDPETGEVVRAADYDPETGRLRDASAASAG [r14_122_TrMRF]	< -1		0.548 ± 0.37
SAGGSAGGSAGGMKVTVEYPDALSVEVEPDSATTTYPNGSRIVVEAPGVTTYDPLPPERSSAGGSAGGSAGG [r7_30_JUSTAS]	-0.39 ± 0.24		0.117 ± 0.046
SAGGSAGGSAGGKPITIERNEDNGPIEIRFPGNGRRIHFPFPPGDDITIDAEDGNIEIKSAGGSAGGSAGGS [r10_979_TrROS]	0.314 ± 0.086		0.827 ± 0.016
SAGGSAGGSAGGMLPFEVLEVTTSTGKGKTTRTVLAREPEGPEVVLTFSPASPEEIERLLSAGGSAGGSAGG [r7_365_JUSTAS]	0.224 ± 0.13		0.735 ± 0.13
SAGGSAGGSAGGKDEKPKPLKVPVIVAPAPEYLELAKKLLPPDKAKVIEKKDDKVVIAFGSAGGSAGGSAGG [r7_670_TrMRF]	-0.533 ± 0.21		-0.425 ± 0.32
SAGGSAGGSAPRLVRVRGPDGGERVIPVPPDVLADRIPPDVPVRVPVVREDGRFRFRVERGSAGGSAGGSAG [r3_86_TrMRF]	< -1		-0.819 ± 0.88
SAGGSAGGSAGGSDPSATLRVTLTPRTTRTRLVTDEDGVERTYTFGGDGTLSVSLLPSGSAGGSAGGSAGGS [r4_162_TrMRF]	0.258 ± 0.091		0.647 ± 0.15
SAGGSAGGSGHHHMTTRTSTSTDPATGSTTVTTTRTTTDGGTVTTTTTLPPPAATTTTSTTTSSAGGSAGGS [r12_1029_JUSTAS]	-0.165 ± 0.11		0.349 ± 0.044
SAGGSAGGSDIEIIINPNMSLEQAKKFANYLAQENNIPIEIEIIPPPKPEPEPERDPEDGKPKSAGGSAGGS [r12_159_TrROS]	< -1		-0.232 ± 0.36
